Reference: publication PMC3485628, “Perlecan domain 1 recombinant proteoglycan augments BMP-2 activity and osteogenesis” (BMC Biotechnology, 2012)

Target: T1, recombinant human perlecan domain 1 proteoglycan rhPln.247 (human, UniProt P98160 22-247, heparan sulfate and chondroitin sulfate glycosaminoglycan chains (CS:HS ratio of approximately 2:1); attachment residues not given)
T1 construct: signal peptide in the construct; The secreted product has probably lost the signal peptide; also called rhPln.D1; rPlnD1; source: HEK 293 cells, adenoviral expression system, purified
Test: ELISA; rhPln.247 coated directly on polystyrene microtiter wells overnight at 4°C in PBS/N3 at about 1-2 ug/ml; rhBMP-2 or rhBMP-7 serially diluted; retained BMP detected with biotinylated anti-BMP antibodies; background without rhPln.247 subtracted; apparent Kd
Conditions: both partners purified

T1 sequence (P98160 22-247): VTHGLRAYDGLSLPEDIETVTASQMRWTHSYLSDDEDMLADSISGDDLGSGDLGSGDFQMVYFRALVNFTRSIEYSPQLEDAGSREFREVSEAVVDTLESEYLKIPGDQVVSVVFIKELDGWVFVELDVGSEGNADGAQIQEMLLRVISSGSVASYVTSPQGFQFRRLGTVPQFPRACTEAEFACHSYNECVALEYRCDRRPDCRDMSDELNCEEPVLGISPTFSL

B1: recombinant human bone morphogenetic protein-7 (ligand)
chain: STGSKQRSQNRSKTPKNQEALRMANVAENSSSDQRQACKKHELYVSFRDLGWQDWIIAPEGYAAYYCEGECAFPLNSYMNATNHAIVQTLVHFINPETVPKPCCAPTQLNAISVLYFDDSSNVILKKYRNMVVRACGCH
notes: bone morphogenetic protein 7, human, recombinant; also called rhBMP-7; rBMP-7; source: bought: R&D Systems
- fold by which rhBMP-2 binds more tightly than rhBMP-7: ~10 fold
